Test: label from the status in PepcDB records

Sequence | protein production
MSLSNIETVPASIEMKPNPTITVFERSPDGGRGLARDMPVRWALEEVGRPYHVRRLSFEAMKEASHLAYQPFGQIPSYEQGDLILFESGAIVMHIAQHHSGLLPEDQLRRARTVAWMFAALNTIEPSILNFTTVWLFERNEPWHEARLARTKEQLLKRLDELSAWLGDREWLEGSFSAADILMICVLRRLESSGILKDYGNLLAYVERGKARPAFKRAFDAQLAVFTAASKNEGHHHHHH | not failed
MSLSNRAGEILIVEDSPTQAEHLKHILEETGYQTEHVRNGREAVRFLSLTRPDLIISDVLMPEMDGYALCRWLKGQPDLRTIPVILLTILSDPRDVVRSLECGADDFITKPCKDVVLASHVKRLLSGVKRTEERYSRESITLAFGNEGHHHHHH | not failed
MSLSQEMIKKWLDEEGFLRMEVPDENARFHYVVNYPEDHVIDIIQPAGKDDMILIACATSVSPEHQAGIRALSMEKRTEFIWKVRFTLNRFGVDFQLDHPENVLNSYLVTDEIFFDGLSKDRLISSIKNVFRAKLQVMWMIQERFGEERPEHDSMYVEGHHHHHH | not failed
MSLSQRTLLLLSQDNAHYERLLKAAHLPHLRILRADNQSDAEKLIGEAHILMAEPARAKPLLAKANKLSWFQSTYAGVDVLLDARCRRDYQLTNVRGIFGPLMSEYVFGHLLSLMRQLPLYREQQKQRLWQSHPYQGLKGRTLLILGTGSIGQHIAHTGKHFGMKVLGVSRSGRERAGFDQVYQLPALNKMLAQADVIVSVLPATRETHHLFTASRFEHCKPGAILFNVGRGNAINEGDLLTALRTGKLGMAVLDVFEQEPLPADSPLWGQPNLIITPHNSAYSFPDDVAQIFVRNYIRFIDGQPLDGKIDFDKGYEGHHHHHH | not failed
MSLSSLLIIFSSSFMALFPVINPLGNGFVVNGFFADLDPSQRKTAIQKLTINFIMIGVGTLLIGHLFLLIFGLAIPVIQLGGGILICKTAIELLGDSNSSDKEGTSQNVDSFKWKSIEQKIFYPITFPISIGPGSISVIFTLMASASVKGKLLHTGINYLVIALVIICMAGILYVFLSQGQRIIQKLGPVGNQIINKLVAFFTFCIGIQISVTGISQIFHLNIL | failed
MSLSVPFEYTPIAQSVLDECEHLDTASLSDALDSLGIDGGLPGIASQVPGTRCVGIAFTVQYQPVDASEGFRGAANYIDQVPSGSVIVSSNSGRHDCTVWGDIMTHFALANGIKGTVIDGVARDIDTVINCNYPLFSRGRFMQSAKNRTQLKAVQVPLVIDGITIQPGDLMVCDGSGCVVVPQQLAAEVVLRARAVEQTERRIIEAISSGSTLEQARMTYRYDQPWLSEAEHGGTQEGHHHHHH | not failed
MSLSYVKEGLAVLEDGRLIYITPEEFRQLLQGDAILAVYSKTCPHCHRDWPQLIQASKEVDVPIVMFIWGSLIGERELSAARLEMNKAGVEGTPTLVFYKEGRIVDKLVGATPWSLKVEKAREIYGGEGHHHHHH | not failed
MSLTADTKRPLTLRDVSEASGVSEMTVSRVLRNRGDVSDATRARVLAAAKELGYVPNKIAGALASNRVNLVAVIIPSLSNMVFPEVLTGINQVLEDTELQPVVGVTDYLPEKEEKVLYEMLSWRPSGVIIAGLEHSEAARAMLDAAGIPVVEIMDSDGKPVDAMVGISHRRAGREMAQAILKAGYRRIGFMGTKMPLDYRARKRFEGFTEVLGKNGVEIEDREFYSGGSALAKGREMTQAMLERSPDLDFLYYSNDMIAAGGLLYLLEQGIDIPGQIGLAGFNNVELLQGLPRKLATMDACRLEIGRKAAEIIAKRLEDPEAEIETRITLEPKISYGDTLKREGHHHHHH | not failed
MSLTDTKVKNAKPSEKVVKLTDGFGLYLLVHTNGSKYWQLGYRFEGKQKVFSIGVYPAVSLANARQRRDEAKKLLAAGVDPSAKKRADNKSVQEKRNNTRAFKTVAKSWFATKTTWSEDYQRSVWTRLETYLFPDIGNKDIAELDTGDLLVPIKKIEKLGYLEIAMRVKQYATAIMRYAVQQKMIRFNPAYDLEGAVQKPQTEHRPAIELEEIPTLLERIEGYKGRSRLTQLAIKLNLLIFIRSSELRFARWSEIDFKSGLWVIPEQREAIKGIKHSDRGAKMRRKHYVPLCEQALVILGELKDLTYDVNGDDGFILTGCYDAMKPMSENTINKALRKMGYDTKTDLCGHGFRTLACSALIESGIWPEDVVELQMSHMEKNNVRAAYTHKAKHLEQRRLMLQWWADFLDANGSGMVRPFEFAQGATQY | failed
MSLTEKFRPTLKDVARQAGVSIATASRALADNPAVAASTRERIQQLASDLGYRANAQARALRSSRSNTIGVIVPSLINHYFAAMVTEIQSTASKAGLATIITNSNEDATTMSGSLEFLTSHGVDGIICVPNEECANQLEDLQKQGMPVVLVDRELPGDSTIPTATSNPQPGIAAAVELLAHNNALPIGYLSGPMDTSTGRERLEDFKAACANSKIGEQLVFLGGYEQSVGFEGATKLLDQGAKTLFAGDSMMTIGVIEACHKAGLVIGKDVSVIGFDTHPLFALQPHPLTVIDQNVEQLAQRAVSILTELIAGTVPSVTKTTIPTALIHRESIINSTLRKEGHHHHHH | not failed
MSLTFSILAHDPETGAIGGAAATGSLCVGGWVLRGDLNAGMSASQGAAPSTFWGEEVLQHLRDGSHPEDAVNHVTSQDSGRAYRQLAAMDLLGNAAAFTGSENQDIKGSVTFASGIASGNMLGDNSVLGAMTEAFVASDLTFERRLLAALIAAEGAGSDFRGLLSAAMLVLHPDRPPVTLRIDYHPDNPIGALEQLYQKATTGDYADWARQVPVLSDKERILDEGHHHHHH | not failed
MSLTIGVIGKSVHPYWSQVEQGVKAAGKALGVDTKFFVPQKEDINAQLQMLESFIAEGVNGIAIAPSDPTAVIPTIKKALEMGIPVVTLDTDSPDSGRYVYIGTDNYQAGYTAGLIMKELLGGKGKVVIGTGSLTAMNSLQRIQGFKDAIKDSEIEIVDILNDEEDGARAVSLAEAALNAHPDLDAFFGVYAYNGPAQALVVKNAGKVGKVKIVCFDTTPDILQYVKEGVIQATMGQRPYMMGYLSVTVLYLMNKIGVQNTLMMLPKVKVDGKVDYVIDTGVDVVTPENLDEYLKKMEELGIPIKEGHHHHHH | not failed
MSLTLLKGRRKVDTIKVGILGYGLSGSVFHGPLLDVLDEYQISKIMTSRTEEVKRDFPDAEVVHELEEITNDPAIELVIVTTPSGLHYEHTMACIQAGKHVVMEKPMTATAEEGETLKRAADEKGVLLSVYHNRRWDNDFLTIKKLISEGSLEDINTYQVSYNRYRPEVQARWREKEGTATGTLYDLGSHIIDQTLHLFGMPKAVTANVMAQRENAETVDYFHLTLDYGKLQAILYGGSIVPANGPRYQIHGKDSSFIKYGIDGQEDALRAGRKPEDDSWGADVPEFYGKLTTIRGSDKKTETIPSVNGSYLTYYRKIAESIREGAALPVTAEEGINVIRIIEAAMESSKEKRTIMLEHEGHHHHHH | not failed
MSLTPWLSIVGISEEGWLALTPIAQQCILQADILVGSDRHFDLLPSLPGAEQWRWGSPFSATITQILERRGQSICILASGDPMCYGVGSLLAQRLPLTELQILPAPSAFSLACSRLGWALPEVETLSLCGRDPALLNALLYPGAKILALSADRSTPATIAEQLCQQGWGSSRLTVLEHLGGPKERKISEIAEHWSQPTIASLNTVAIECHARDRDLIVPPRLTGLPDAAYHHDGQLTKREVRAITLAALAPLPGQLLWDVGAGCGSIGIEWMRSDRRCRAIAIEQHPQRLQIITQNAIALGVPNLQVVAGSAPATLSGLPQPDAIFIGGGVTAPGVLDQCWQALPMGGRLVVNAVTLESEQVVLAGQQRWGGDLIRVAVQRAEPIGRFLGWKSLAPITQWTVKKTALEHHHHHH | not failed
MSLTRNRTVALAIIDMQNDFVLPGAPACVEGAMGTVPVIAGLLAKARAEGWMVLHVVRAHRADGSDAEKSREHLFLEGGGLCVAGTPGAEIVAGLEPASGETVLVKTRFSAFMGTECDMLLRRRGVDTLLVSGTQYPNCIRGTAVDAFALDYDVVVVTDACSARTPGVAESNINDMRAMGITCVPLTALDDVLARREGHHHHHH | not failed
MSLTRPLRADAARNRARVLEVAYDTFAAEGLGVPMDEIARRAGVGAGTVYRHFPTKQALVVAVAEDRVRRIVDHARTLLAAEGPGEALFVFMRDMVRSAAADYGLVDALVGYGLDLEVAAPGAEAAFLATLGELLAAAQRAGTVRADVDVAVIKALLVVCKVPQVYDGEVSERVVRVIEDGLRVRSSVEGHHHHHH | not failed
MSLTVQDLHFKNKVNFIGGQYVPSNESDTIDILSPSTGKVIGEIPAGCKADAENALEVAQAAQKAWAKLTARTRQNMLRTFANKIRENKHILAPMLVAEQGKLLSVAEMEVDVTATFIDYGCDNALTIEGDILPSDNQDEKIYIHKVPRGVVVGITAWNFPLALAGRKIGPALITGNTMVLKPTQETPLATTELGRIAKEAGLPDGVLNVINGTGSVVGQTLCESPITKMITMTGSTVAGKQIYKTSAEYMTPVMLELGGKAPMVVMDDADLDKAAEDALWGRFANCGQVCTCVERLYVHASVYDEFMAKFLPLVKGLKVGDPMDADSQMGPKCNQREIDNIDHIVHEAIKQGATVATGGKTATVEGFEGGCWYEPTVLVDVKQDNIVVHEETFGPILPIVKVSSMEQAIEFCNDSIYGLSAYVHTQSFANINQAISDLEVGEVYINRGMGEQHQGFHNGWKQSGFGGEDGKFGLEQYLEKKTVYINEAEGHHHHHH | not failed
MSLVEATLEVIGGKWKCVILCHLTHGKKRTSELKRLMPNITQKMLTQQLRELEADGVINRIVYNQVPPKVEYELSEYGRSLEGILDMLCAWGANHINRVEGHHHHHH | not failed
MSLVNLTINGKHVSAPSGTSILDAAKLINIKIHNLCHLHMNEIDKLDTCASCRVCMVETERGLVPACGTVIKEGMKVQTNSAKALNARRTIVELLLSDHPQDCFVCEKNGDCELQTIAADLGVRKIRYQGSKSFAGKDTSTKSLVKDHSKCILCRRCETVCNDIQTVGALSGVNRGFNTLVSTFFNSDMVETECTFCGQCISVCPTGALTEVDNVPKLWDVLNKKEKTIVVQVAPAVRVAIGEEFGLEPGSISTGKMVAALKALGFEHVFDTNFGADFTIMEEATEFIERIQKGENLPILTSCCPAWVNFLEHNYPDKLNLASSCKSPQGMFGSIAKNYYAPKILGINPEELYVVSVMPCVAKKYEASREELSESGILDVDLSITTRELAKMIKEAAIDLPNLQDQDFDNPLGKSTGAASIFGASGGVLEAALRTSYEKITNKTLDNVNFTNVRGLKGIREASIDVDGTTVNVCIVNTLKNARKIMDKVRSGECKYHIIEVMACPGGCVGGAGQPYHHGNTEIVDRRANALYEIDRNKAIRKSHENPDLQAIYKDFFGEPNSDVAHKYLHTHYFDKSCVYGECPQECACEEAK | failed
MSLVRSKAPLRLGLAGGGSDVSPYSDIYGGLILNATINLYAYCTIEETNSGRIEINAYDAQCCKSYLSMSQLEIDGEASLIKGVYNRIIRDYRLEPKSFKITTYNDAPAGSGLGTSSTMVVCILKAFIEWLSLPLGDYETSRLAYEIERKDLGLSGGKQDQYAAAFGGFNYMEFLQNDLVIVNPLKMKRWIVDELESSMVLYFTGRSRSSAAIINEQKKNTSEGNQTAIEAMHKIKQSAIDTKLALLKGDVGEFARILGEGWENKKKMAGAITNPMIQEAFDVATGAGAMAGKVSGAGGGGFIMFVVEPTRKEEVVRALNNLNGFVMPFQFIDDGAHGWKIYSTDKVQKEGHHHHHH | not failed
MSLWLTHPLFLPSLIVGVTIVLWATSLLPEFITALLFFAAAMMAKIAPPEVIFGGFASSAFWLVFSGFVLGIAIRKTGLADRAAQALSARLTDSWPRMVASVVLLSYALAFVMPSNMGRIALLMPIVAAMARRAGIADGSRGWFGLALAVGFGTFQLSATILPANVPNLVMSGAAEGSYGIHLNYVPYLLLHTPVLGWLKGAVLVALICWLFPGKPHPPRDLAPLPPMSRDEKRLAWLLAVVLSLWVTESWHGVGPAWTGLAAAVITLLPRVGFINGEEFASGVNMRTCIYVAGILGLAIAVTQTGIGGAVGNALLQVMPLDKDNPFTSFLALTGITSALNFIMTANGVPALYTTFAQSFADATGFPLLSVIMIQVLGYSTPLLPYQASPIVVAMGLGKVPARAGMQLCLALAAVSYLILLPLDYAWYQLLGKL | failed

Source: a protein production outcome set (Wang et al. 2014)
